# Target: the molecule itself
# Experiment: cross-linking
protein,measurement,value
"Flag-SART3 (natural protein, UniProt Q15020 1-963, looked up) MATAAETSASEPEAESKAGPKADGEEDEVKAARTRRKVLSRAVAAATYKTMGPAWDQQEEGVSESDGDEYAMASSAESSPGEYEWEYDEEEEKNQLEIERLEEQLSINVYDYNCHVDLIRLLRLEGELTKVRMARQKMSEIFPLTEELWLEWLHDEISMAQDGLDREHVYDLFEKAVKDYICPNIWLEYGQYSVGGIGQKGGLEKVRSVFERALSSVGLHMTKGLALWEAYREFESAIVEAARLEKVHSLFRRQLAIPLYDMEATFAEYEEWSEDPIPESVIQNYNKALQQLEKYKPYEEALLQAEAPRLAEYQAYIDFEMKIGDPARIQLIFERALVENCLVPDLWIRYSQYLDRQLKVKDLVLSVHNRAIRNCPWTVALWSRYLLAMERHGVDHQVISVTFEKALNAGFIQATDYVEIWQAYLDYLRRRVDFKQDSSKELEELRAAFTRALEYLKQEVEERFNESGDPSCVIMQNWARIEARLCNNMQKARELWDSIMTRGNAKYANMWLEYYNLERAHGDTQHCRKALHRAVQCTSDYPEHVCEVLLTMERTEGSLEDWDIAVQKTETRLARVNEQRMKAAEKEAALVQQEEEKAEQRKRARAEKKALKKKKKIRGPEKRGADEDDEKEWGDDEEEQPSKRRRVENSIPAAGETQNVEVAAGPAGKCAAVDVEPPSKQKEKAASLKRDMPKVLHDSSKDSITVFVSNLPYSMQEPDTKLRPLFEACGEVVQIRPIFSNRGDFRGYCYVEFKEEKSALQALEMDRKSVEGRPMFVSPCVDKSKNPDFKVFRYSTSLEKHKLFISGLPFSCTKEELEEICKAHGTVKDLRLVTNRAGKPKGLAYVEYENESQASQAVMKMDGMTIKENIIKVAISNPPQRKVPEKPETRKAPGGPMLLPQTYGARGKGRTQLSLLPRALQRPSAAAPQAENGPAAAPAVAAPAATEAPKMSNADFAKLFLRK",stoichiometry N,2

# From PMC5961147 (Nucleic Acids Research, 2018)
